Test results as given in publication PMC6500386 (Biochemistry, 2019).

Target: the molecule itself
Experiment: SEC + native gel or EMSA

B1: Bmp3, FAD-dependent prolyl-S-Bmp1(CP) oxidase (enzyme, Marinomonas mediterranea MMB-1)
chain: MNFEWTHEQAELFEHALRFGKELSAPLQEDNGFPRDNWNALGDFGYFGLPIPEKYAKDGSGFDILTTIKIIEGLGQSCTDTGLLFAGAAHTFACSMPILEHGSETLKHQLLPDLATGRKIAANAISEASAGSDISNLATTAQKEGDYYVLNGGKSYVTNGSIADYYVVYATTNKKHGYLGQTAFVVPRNTPGISVGNDYHKLGLRSAPLNQVFFDNCTIHKDYALGREGQGARIFAASMDWERCCLFAIFVGAMQRDLNQCIEYANTRMQGDKTISRFQAVSHRIADMGVRLESARLMLYYAAWQKSQDVDNTKAVAMSKLAISEAFVQSGIDSIRVHGALGYLDEGRVNNSIKDALGSVLFSGTSDIQRELICNRLGLL
stoichiometry N: 4
